Laboratory results reported in paper PMC5432316.

Target: recombinant gC1q domain of EMILIN1 (UniProt Q9Y6C2)
Test: cell adhesion assay (CAFCA, Centrifugal Assay for Fluorescence-based Cell Adhesion); ligand as substrate in CAFCA miniplates; calcein AM-labelled cells centrifuged onto the substrate, 20 min at 37°C, then centrifuged at 500 rpm; bound cells read by fluorescence; for HaCat cells also with integrin blocking antibodies

UniProt Q9Y6C2, sequence (Q9Y6C2 22-1016): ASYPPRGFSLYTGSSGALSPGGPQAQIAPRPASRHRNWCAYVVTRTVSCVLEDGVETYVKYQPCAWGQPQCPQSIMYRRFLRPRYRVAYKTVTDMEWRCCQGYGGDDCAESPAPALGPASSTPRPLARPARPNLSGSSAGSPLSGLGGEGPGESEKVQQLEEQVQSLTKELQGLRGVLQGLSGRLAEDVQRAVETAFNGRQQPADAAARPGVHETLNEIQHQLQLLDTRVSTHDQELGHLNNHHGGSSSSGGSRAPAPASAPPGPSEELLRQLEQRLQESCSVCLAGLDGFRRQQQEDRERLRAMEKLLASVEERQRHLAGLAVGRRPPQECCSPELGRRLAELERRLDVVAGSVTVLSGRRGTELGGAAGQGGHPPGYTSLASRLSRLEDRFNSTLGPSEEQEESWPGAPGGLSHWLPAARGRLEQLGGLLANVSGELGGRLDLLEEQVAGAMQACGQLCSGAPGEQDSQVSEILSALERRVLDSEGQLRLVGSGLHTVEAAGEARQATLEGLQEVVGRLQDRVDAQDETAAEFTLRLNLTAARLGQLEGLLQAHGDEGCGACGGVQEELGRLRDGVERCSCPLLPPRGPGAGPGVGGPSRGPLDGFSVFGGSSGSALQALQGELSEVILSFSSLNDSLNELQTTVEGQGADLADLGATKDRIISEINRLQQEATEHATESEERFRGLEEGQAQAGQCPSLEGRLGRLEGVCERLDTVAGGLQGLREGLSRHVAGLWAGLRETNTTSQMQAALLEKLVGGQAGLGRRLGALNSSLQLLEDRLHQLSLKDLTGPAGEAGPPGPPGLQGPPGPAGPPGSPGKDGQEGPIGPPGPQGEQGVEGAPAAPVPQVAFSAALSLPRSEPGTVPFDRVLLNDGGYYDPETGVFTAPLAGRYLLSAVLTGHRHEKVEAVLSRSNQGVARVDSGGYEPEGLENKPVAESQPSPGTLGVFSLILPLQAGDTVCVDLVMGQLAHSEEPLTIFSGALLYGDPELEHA

Row | percentage of adhesion | Substance
1 | 90% | α4β1 integrin on HT29 cells transfected with the wild type α4 integrin chain (from UniProt P13612 34-1032; P05556 21-798) (receptor)
2 | 60% | α4β1 integrin on SW480 cells transfected with the wild type α4 integrin chain (from UniProt P13612 34-1032; P05556 21-798) (receptor)
3 | 90% | α4β1 integrin on HT29 cells transfected with the cytoplasmic tail-deleted α4 chain mutant R974 (from UniProt P05556 21-798) (receptor)
4 | 60% | α4β1 integrin on SW480 cells transfected with the cytoplasmic tail-deleted α4 chain mutant R974 (from UniProt P05556 21-798) (receptor)
